Source: patent publication US20050277167
Entries after “also recorded” stand apart in the source; their conditions may differ.

Target: [2,3-3H]-L-proline-labeled procollagen substrate

B1: chicken prolyl 3-hydroxylase 1 (chicken P3H1) (protein)
chain: AGPPGPLGPPEHSEPPLPAEPPDALFAAGAEAYARGDWPAVVLQMERALRARAAIRARSVRCRLRCANATAVVPTDGLEPTLHDLLFFRGLLRRAACLRGCGPTQPSRYRLGEELEREFRKRSPYNYLQVAYFKINKVAKAVAAAHTFFVANPEHVEMKQNLEYYQMMAGVRESDFADLEARPHMTEFRLGVRFYSEEQPAAAVLHLEKALQEYFVADTECRALCEGPYDYEGYNYLEYNADLFQAMTDHYMQVLSCKQGCVTELASQPGREKPLEDFLPSHFNYLQFAYYNNGNYEKAIECAKTYLLFFPNDEVMNQNLAYYTAVLGEDLARPIEPRKEIQAYRQRSLMEKELLFFSYDVFGIPFVDPDTWTPEEVIPKRLREKQKVERETAARISEEIGNLMKEIETLVEEKAKESAEMSKFIREGGPLVYEGASVTMNSKSLNGSQRVVVDGVLSAEECRELQRLTNAAASAGDGYRGKTSPHTPSETFYGVTVLKALKLGQEGKVPLQSAHLYYNVTEKVRHMMESYFRLEVPLHFSYSHLVCRTAIDEKQEGRSDNSHEVHVDNCILNAEALVCVKEPPAYTFRDYSAILYLNGDFEGGAFYFTELDAKTQTAEVQPQCGRAVGFSSGSENPHGVKAVTKGQRCAIALWFTLDPRHSERERVQADDLVKMLFRTEEVDLLQETSAEQEPTAATSTAGLHAAGKDEL
In the case of B1, the “Km; prolyl 3-hydroxylase activity as release of tritiated water (THO), double reciprocal plot” value is reported as “a Km of 179 µl of substrate per 2 mls reaction volume; also recorded: or 89.5 µl of substrate per ml”.
